Assay [1] addresses UBXD1 UBX extension (269–330), for fluorescence anisotropy (human) (UniProt Q9BZV1). The assay can be described thus: fluorescence polarisation; fluorescence anisotropy; Atto594-labeled UBXD1 proteins, p97 constructs titrated; 50 mM NaKPi pH 7.5, 25 °C; all fitted with stoichiometry n = 1. (In general: In fluorescence polarisation assays a small probe gives low polarisation when free and higher when bound to something large.)

Assay [2] concerns the target ubiquitin (wild type) (UniProt P0CG48). Kind of assay: NMR titration; 1H-15N-HSQC titrations of ubiquitin with UBXD1, UBXD1-eUBX R305A, PUB or the UBX extension; 50 mM sodium potassium phosphate pH 7.5, 25 °C.

As usually defined, the Kd is the concentration at which binding is half-saturated.

For “p97-wt (1–806) (from UniProt P55072 1-806) (enzyme)”, the Kd in assay [1] worked out at 191 µM.

Turning to “UBXD1-eUBX R305A (from UniProt Q9BZV1 1-441) (domain or fragment)”, the Kd in assay [2] was determined as 155 µM.

For the origin of these results see article PMC10241913.
